This passage reports Kd, dH and stoichiometry N results from PMC8167360.

The target of this test is Mac2 (SUD-N, macrodomain II) of SARS-CoV Nsp3, purified (SARS-CoV (strain Frankfurt)). Put plainly: ITC; […] ([…]) […] ([…]) […]; 25°C; VP-ITC; 20 mM Tris–HCl pH 8.5, 150 mM NaCl. In general terms: In ITC the heat of successive injections is recorded.

B1: middle domain of human Paip1 (Paip1M), purified (domain or fragment)
chain: GSHMASMTGGQQMGRGSTLSEYVQDFLNHLTEQPGSFETEIEQFAETLNGCVTTDDALQELVELIYQQATSIPNFSYMGARLCNYLSHHLTISPQSGNFRQLLLQRCRTEYEVKDQAAKGDEVTRKRFHAFVLFLGELYLNLEIKGTNGQVTRADILQVGLRELLNALFSNPMDDNLICAVKLLKLTGSVLEDAWKEKGKMDMEEIIQRIENVVLDANCSRDVKQMLLKLVELRSS
With B1, the Kd – broadly, the concentration at which binding is half-saturated – is 15.5 µM; the dH is -6.78 kcal/mol; the stoichiometry N (as a rule, a count of units in the complex or per binding partner) was 0.94.
